Experimental data as given in publication PMC3720794.

Experiments:
Experiment in all cases: pre-steady-state rapid-quench kinetics
MGMT G132R = MGMT G132R (Homo sapiens, UniProt P16455 1-207, G132R)
MGMT WT = MGMT WT (Homo sapiens, UniProt P16455 1-207)
MGMT G156C = MGMT G156C (Homo sapiens, UniProt P16455 1-207, G156C)
Chain of MGMT G156C (P16455 whole entry G156C): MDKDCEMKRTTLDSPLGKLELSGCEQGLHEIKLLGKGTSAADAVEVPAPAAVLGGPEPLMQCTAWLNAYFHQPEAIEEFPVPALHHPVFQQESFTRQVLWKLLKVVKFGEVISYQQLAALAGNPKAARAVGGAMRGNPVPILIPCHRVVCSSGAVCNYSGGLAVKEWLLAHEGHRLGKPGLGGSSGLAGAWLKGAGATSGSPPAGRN

Chain of MGMT WT (P16455 whole entry): as the sequence (P16455 whole entry G156C) above, with C156G counted along it
Chain of MGMT G132R (P16455 whole entry G132R): as the sequence (P16455 whole entry G156C) above, with G132R, C156G counted along it

B1: PvuIITopD/PvuIIBottom (O6MeG 18 bp duplex) (dsDNA)
DNA 1: GCCCGGCCAGCTGCAGTT
DNA 2: AACTGCAGCTGGCCGGGC
modifications: O6-methylguanine at position 13 of strand 1 (printed as X), paired with C
B1 gave a Kd (MGMT G132R) of 14 ± 3 nM, a Kd (MGMT WT) of 6.2 ± 0.7 nM and a Kd (MGMT G156C) of 240 ± 60 nM.
